The target in series [1] is T1, DRB4D2D1 (Arabidopsis thaliana, UniProt Q8H1D4 1-3+82-150+73-81+4-72, internal_change).
T1 sequence: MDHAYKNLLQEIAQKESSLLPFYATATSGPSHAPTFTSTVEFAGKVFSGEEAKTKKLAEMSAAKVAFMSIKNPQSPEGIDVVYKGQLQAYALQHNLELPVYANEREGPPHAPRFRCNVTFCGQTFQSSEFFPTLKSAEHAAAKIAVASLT
Kind of series: ITC. Background: ITC needs no label: the signal is the heat of the interaction.

Series [2] has as its target T2, DRB4 (Arabidopsis thaliana, UniProt Q8H1D4 1-355).
T2 sequence: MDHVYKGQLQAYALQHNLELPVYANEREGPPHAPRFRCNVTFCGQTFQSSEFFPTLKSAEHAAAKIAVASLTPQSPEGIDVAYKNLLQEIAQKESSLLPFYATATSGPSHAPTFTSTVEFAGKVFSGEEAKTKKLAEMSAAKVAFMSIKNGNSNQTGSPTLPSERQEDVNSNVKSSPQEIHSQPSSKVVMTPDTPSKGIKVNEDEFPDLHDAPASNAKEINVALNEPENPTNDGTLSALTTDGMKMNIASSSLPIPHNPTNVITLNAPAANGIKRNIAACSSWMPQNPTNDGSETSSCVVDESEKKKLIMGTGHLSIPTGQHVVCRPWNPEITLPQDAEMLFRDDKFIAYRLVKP
Kind of series: ITC.

Series [3] deals with T3, DRB4 H32A/K133A (Arabidopsis thaliana, UniProt Q8H1D4 1-355, H32A;K133A).
T3 sequence: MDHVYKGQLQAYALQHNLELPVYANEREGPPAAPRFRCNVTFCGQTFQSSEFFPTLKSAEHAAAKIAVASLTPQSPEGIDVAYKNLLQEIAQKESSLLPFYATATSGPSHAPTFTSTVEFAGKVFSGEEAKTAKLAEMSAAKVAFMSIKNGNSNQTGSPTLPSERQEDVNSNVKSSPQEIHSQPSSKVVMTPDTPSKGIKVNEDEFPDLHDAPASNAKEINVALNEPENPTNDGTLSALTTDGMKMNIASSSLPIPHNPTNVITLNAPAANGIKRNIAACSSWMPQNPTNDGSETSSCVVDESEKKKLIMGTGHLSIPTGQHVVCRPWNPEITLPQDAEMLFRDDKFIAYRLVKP
The series can be described thus: EMSA.

The target in series [4] is T4, DRB4D1D2 (Arabidopsis thaliana, UniProt Q8H1D4 1-153).
T4 sequence: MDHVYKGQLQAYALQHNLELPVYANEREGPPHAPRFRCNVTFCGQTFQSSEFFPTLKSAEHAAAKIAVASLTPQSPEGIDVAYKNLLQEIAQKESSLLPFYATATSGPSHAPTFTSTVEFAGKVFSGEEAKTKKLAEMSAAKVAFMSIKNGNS
Kind of series: ITC.

In series [5] the target is T5, DRB4C (Arabidopsis thaliana, UniProt Q8H1D4 154-355).
T5 sequence: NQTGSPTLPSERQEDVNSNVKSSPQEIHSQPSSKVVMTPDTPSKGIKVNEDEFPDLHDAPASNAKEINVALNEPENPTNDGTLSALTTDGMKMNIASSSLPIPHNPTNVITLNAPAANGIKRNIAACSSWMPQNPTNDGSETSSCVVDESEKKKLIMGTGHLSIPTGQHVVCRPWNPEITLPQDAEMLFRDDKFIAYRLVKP
The series can be described thus: EMSA. On the technique in general: A gel shift assay detects complexes by their altered migration in electrophoresis.

The target of series [6] is T6, DRB4D1D2 H32A/K133A (Arabidopsis thaliana, UniProt Q8H1D4 1-153, H32A;K133A).
T6 sequence: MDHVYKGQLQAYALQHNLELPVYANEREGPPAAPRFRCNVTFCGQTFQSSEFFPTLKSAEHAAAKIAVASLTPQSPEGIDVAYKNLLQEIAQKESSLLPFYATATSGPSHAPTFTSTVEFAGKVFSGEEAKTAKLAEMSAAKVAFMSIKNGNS
The series can be described thus: EMSA.

B1: 80 bp dsRNA (dsRNA)
RNA 1: GGGUGCUGUUUCUCGUGUUCGUGUUCGUUUCUCUUCUCUUGUCCUUGUUCUGUUCUCCUUUGUUCGUUCCUGUUCCCCUU
RNA 2: AAGGGGAACAGGAACGAACAAAGGAGAACAGAACAAGGACAAGAGAAGAGAAACGAACACGAACACGAGAAACAGCACCC
For the molecule B1, the Kd was 4000 ± 400 nM in series [1], 120 ± 40 nM in series [2] and 400 ± 30 nM in series [4]. In addition, the binding result in series [3], in series [5] and in series [6] was “no binding” each time.

The Kd is a measure of binding affinity in units of concentration. A high value points to lower affinity.

The values are drawn from paper PMC5737894.
